Assay results published in patent US7232659 (dated 2007).
No end group written: not given here. *: point of attachment. For = O=C*

T1: formyl peptide receptor with a C-terminal hexahistidine tag (FPR:C-H6) (human, UniProt P21462 1-350)
T1 construct: Solubilized from membranes and captured on dextran chelate nickel (DCNi) beads; also called C-H6:FPR
T1 sequence: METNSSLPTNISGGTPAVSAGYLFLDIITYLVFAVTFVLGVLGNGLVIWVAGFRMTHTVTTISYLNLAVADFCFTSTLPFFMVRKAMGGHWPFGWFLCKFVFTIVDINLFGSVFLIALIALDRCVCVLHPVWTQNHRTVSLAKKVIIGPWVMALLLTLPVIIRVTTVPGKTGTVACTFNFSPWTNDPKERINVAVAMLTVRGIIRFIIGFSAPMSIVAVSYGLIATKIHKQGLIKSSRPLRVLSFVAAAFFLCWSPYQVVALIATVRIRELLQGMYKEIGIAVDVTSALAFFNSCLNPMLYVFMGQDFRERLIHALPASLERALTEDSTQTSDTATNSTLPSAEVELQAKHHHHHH

B1: FPR-Giα2 fusion protein (receptor, human;rat)
chain: METNSSLPTNISGGTPAVSAGYLFLDIITYLVFAVTFVLGVLGNGLVIWVAGFRMTHTVTTISYLNLAVADFCFTSTLPFFMVRKAMGGHWPFGWFLCKFVFTIVDINLFGSVFLIALIALDRCVCVLHPVWTQNHRTVSLAKKVIIGPWVMALLLTLPVIIRVTTVPGKTGTVACTFNFSPWTNDPKERINVAVAMLTVRGIIRFIIGFSAPMSIVAVSYGLIATKIHKQGLIKSSRPLRVLSFVAAAFFLCWSPYQVVALIATVRIRELLQGMYKEIGIAVDVTSALAFFNSCLNPMLYVFMGQDFRERLIHALPASLERALTEDSTQTSDTATNSTLPSAEVELQAKAAAMGCTVSAEDKAAAERSKMIDKNLREDGEKAAREVKLLLLGAGESGKSTIVKQMKIIHEDGYSEEECRQYRAVVYSNTIQSIMAIVKAMGNLQIDFADPQRADDARQLFALSCAAEEQGMLPEDLSGVIRRLWADHGVQACFGRSREYQLNDSAAYYLNDLERIAQSDYIPTQQDVLRTRVKTTGIVETHFTFKDLHFKMFDVGGQRSERKKWIHCFEGVTAIIFCVALSAYDLVLAEDEEMNRMHESMKLFDSICNNKWFTDTSIILFLNKKDLFEEKITQSPLTICFPEYTGANKYDEAASYIQSKFEDLNKRKDTKEIYTHFTCATDTKNVQFVFDAVTDVIIKNNLKDCGLF
notes: Solubilized from membranes; in the assays occupied by L^F (fMLFK-FITC), which gives the signal; also called FPR-αi2; FPR-Gαi2
B2: FPR-GFP fusion protein (receptor)
chain: not shown
notes: also called R^F; receptor-GFP fusion protein
B3: fMLFFGGK (peptide)
peptide: For-MLFFGGK
notes: Synthesized by Commonwealth Biotechnologies; also called non-fluorescent ligand
B4: formyl-MLFK-FITC (peptide)
peptide: For-MLFK
modifications: also: FITC conjugate, site not given here
notes: all other places print fMLFK-FITC; also called fMLFK-FITC; fluorescent ligand
B5: formyl peptide receptor (FPR), wild type, detergent-solubilized (receptor, human, UniProt P21462 1-350, looked up)
chain: METNSSLPTNISGGTPAVSAGYLFLDIITYLVFAVTFVLGVLGNGLVIWVAGFRMTHTVTTISYLNLAVADFCFTSTLPFFMVRKAMGGHWPFGWFLCKFVFTIVDINLFGSVFLIALIALDRCVCVLHPVWTQNHRTVSLAKKVIIGPWVMALLLTLPVIIRVTTVPGKTGTVACTFNFSPWTNDPKERINVAVAMLTVRGIIRFIIGFSAPMSIVAVSYGLIATKIHKQGLIKSSRPLRVLSFVAAAFFLCWSPYQVVALIATVRIRELLQGMYKEIGIAVDVTSALAFFNSCLNPMLYVFMGQDFRERLIHALPASLERALTEDSTQTSDTATNSTLPSAEVELQAK
notes: Used as a crude dodecyl maltoside extract of U937 membranes, not purified; In ternary complex assays it is occupied by the fluorescent ligand L^F; also called wild type receptor; soluble FPR

Tests used:
β1H6γ2 dimer [1] = target: T2, β1H6γ2 dimer (human, UniProt P62873 2-340; P59768 2-68); test: flow cytometry, β1H6γ2 on DCNi beads, 1 µM GTP against GTPγS background
T2 construct: Purified from Sf9 cells and held on DCNi beads by the hexahistidine tag; also called βγ; Gβγ
Experimental: (§1) Each mixture was mixed by pipetting to ensure a uniform starting suspension of the beads in 96 V-well plates (Costar), and then mixed at low speed on a vortex mixer at 7° for two hours. The 10 μl assays were individually brought to 200 μl with 0.1% dodecyl maltoside in buffer A in 12×75 mm tubes for flow cytometric measurement of fluorescence of the beads. LRG assembly was defined as the difference between fluorescence without GTPγS and that with GTPγS. All determinations were done in duplicate.

[2] = target: T3, G protein heterotrimer αi3β1H6γ2 (human, UniProt P62873 2-340; P59768 2-68); test: flow cytometry, LR^FG assembly on αβγ DCNi beads against GTPγS background
Experimental: as §1

[3] = target: T3, G protein heterotrimer αi3β1H6γ2; test: flow cytometry, LR^FG assembly on αβγ DCNi beads, FPR-GFP varied with saturating fMLFFGGK; binding nearly linear over the range (FIG. 12D)
FPR-GFP fusion protein = target: B2; test: flow cytometry, LR^FG assembly on αβγ DCNi beads, L varied; receptor depletes the ligand, so the filing says that the affinity of L for R^F is not revealed (FIG. 12C)
Experimental: as §1, with “Standard LRG Assembly Assay. […] Each” for “Each”

[4] = target: T1, formyl peptide receptor with a …; test: flow cytometry, hexahistidine-tagged FPR on DCNi beads, L^F titrated (FIG. 9E)
Experimental: The initial bead fluorescence was measured for twenty seconds, then an anti-FITC antibody was mixed with the beads, and the decrease in bead fluorescence was measured for another 100 seconds. The line shown is a best fit to a plateau, followed by an exponential decrease to the bottom.

[5] = target: B5; test: spectrofluorimetry, solubilized FPR, free ligand quenched with anti-FITC antibody, ligand-binding curve of FIG. 8B
Experimental: Fluorescence was measured with an SLM 8000 spectrofluorimeter (SLM Instruments, Inc.) using the photon counting mode. The sample holder was fitted with a cylindrical cuvette adapter, which allowed the use of 200 µl samples in 7 mm×45 mm cylindrical cuvettes (Sienco; Wheat Ridge, Colo.), stirred with 2×5 mm stir bars (Bel-Art). […] Emission was monitored using a 520+/−10 nm filter (Corion) and a 500 nm long-pass filter (Kopp; Pittsburg, Pa.). Additions to samples during kinetic measurements were made through an injection port on the top of the sample holder with 10 µl glass syringes (Hamilton; Reno, Nev.).

[6] = target: T3, G protein heterotrimer αi3β1H6γ2; test: flow cytometry, αi3β1H6γ2 on DCNi beads, 60 nM FPR with 75 nM L^F; uncoated beads about 9,000 fluorophores
Experimental: as §1
(§2) The 10 μl assay was then diluted to 200 μl for spectrofluorimetric measurement. […] Uncoated beads were used in an assembly assay, bar 1, or were coated with G protein βγ only and used in an assembly assay, bar 2.

β1H6γ2 dimer [7] = target: T2, β1H6γ2 dimer; test: flow cytometry of DCNi beads coated with βγ, 60 nM FPR and 75 nM L^F, with 0.1 mM GTPγS only background fluorescence
Experimental: as §1, §2

[8] = target: T3, G protein heterotrimer αi3β1H6γ2; test: flow cytometry, L^FRG assembly on αi3β1H6γ2 DCNi beads, more nearly optimal conditions

T3 sequence (P62873 2-340, chain 1 of 2): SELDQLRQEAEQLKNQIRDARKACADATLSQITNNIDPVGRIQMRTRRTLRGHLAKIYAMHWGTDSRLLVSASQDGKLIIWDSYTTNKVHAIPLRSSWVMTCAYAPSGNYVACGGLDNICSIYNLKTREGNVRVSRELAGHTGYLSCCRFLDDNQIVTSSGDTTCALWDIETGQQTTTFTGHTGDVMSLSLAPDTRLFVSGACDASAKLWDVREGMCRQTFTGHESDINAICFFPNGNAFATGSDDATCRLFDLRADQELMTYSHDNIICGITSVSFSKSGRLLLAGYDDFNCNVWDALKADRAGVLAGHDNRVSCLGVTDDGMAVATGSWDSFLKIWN
T3 sequence (P59768 other isoform, or with tags, fused parts or gaps, chain 2 of 2): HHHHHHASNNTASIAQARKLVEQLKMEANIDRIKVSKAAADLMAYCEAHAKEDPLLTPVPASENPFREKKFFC
T2 sequence (P62873 2-340, chain 1 of 2): as the sequence (P62873 2-340, chain 1 of 2) above
T2 sequence (P59768 other isoform, or with tags, fused parts or gaps, chain 2 of 2): as the sequence (P59768 other isoform, or with tags, fused parts or gaps, chain 2 of 2) above

Binder: B1
- total fluorescence to background ratio (β1H6γ2 dimer [1]): 2.7 ratio

Binder: B2
- total binding to background ratio [2]: 4.9 ratio
- Kd [3]: 1000 nM

Binder: B3
- EC50 (FPR-GFP fusion protein): 115 nM

Binder: B4
- Kd [4]: ~8 nM
- Kd [5]: 4.8 nM

Binder: B5
- bead fluorescence against uncoated beads [6]: 3 fold
- binding result (β1H6γ2 dimer [7]): no binding
- signal to background [8]: ≤ 4 ratio
